We go through 1 molecule from patent US20170355953A1 (OSAKA UNIVERSITY, published 2017).

This assay concerns the target T1, N-terminally TARGET-tagged human afamin (human, UniProt P43652 22-599).
T1 construct: also called hAFM; (TARGET-tagged) afamin; not shown: N-terminal TARGET tag
T1 sequence (looked up): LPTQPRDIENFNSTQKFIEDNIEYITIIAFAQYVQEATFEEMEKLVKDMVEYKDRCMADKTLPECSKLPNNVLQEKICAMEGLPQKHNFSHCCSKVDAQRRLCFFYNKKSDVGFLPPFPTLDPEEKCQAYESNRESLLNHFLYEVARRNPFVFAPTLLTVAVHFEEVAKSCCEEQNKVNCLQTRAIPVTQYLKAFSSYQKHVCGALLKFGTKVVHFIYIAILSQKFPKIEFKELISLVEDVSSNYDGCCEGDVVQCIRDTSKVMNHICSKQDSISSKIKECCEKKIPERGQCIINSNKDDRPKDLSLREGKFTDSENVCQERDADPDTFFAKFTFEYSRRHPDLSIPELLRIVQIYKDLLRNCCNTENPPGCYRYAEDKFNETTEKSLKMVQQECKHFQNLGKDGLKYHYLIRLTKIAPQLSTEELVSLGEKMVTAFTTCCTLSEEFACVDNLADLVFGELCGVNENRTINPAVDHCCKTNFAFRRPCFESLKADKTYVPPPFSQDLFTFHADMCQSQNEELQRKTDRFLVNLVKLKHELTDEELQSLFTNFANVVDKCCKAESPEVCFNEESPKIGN
Put plainly: co-immunoprecipitation on P20.1-sepharose (TARGET tag on afamin), western blotting with biotin-modified NZ-1. The method, then:
The transfected cells of each type were cultured for 90 hours in a serum-free culture medium, and the supernatants were separately harvested. To 1 mL of each supernatant, 20 μL of NZ-1-sepharose or P20.1-sepharose was added, and the mixture was rotated end over end for 1 hour. The sepharose was precipitated by centrifugation, and the supernatant was removed. After the sepharose was washed 3 times with 1 mL of TBS, 30 μL of SDS sample buffer was added, and elution was performed under heating at 95° C. for 2 minutes. The eluate was subjected to western blotting using biotin-modified NZ-1.

B1: N-terminally PA-tagged human Wnt3 (ligand)
chain: GVAMPGAEDDVVGYPIWWSLALGQQYTSLGSQPLLCGSIPGLVPKQLRFCRNYIEIMPSVAEGVKLGIQECQHQFRGRRWNCTTIDDSLAIFGPVLDKATRESAFVHAIASAGVAFAVTRSCAEGTSTICGCDSHHKGPPGEGWKWGGCSEDADFGVLVSREFADARENRPDARSAMNKHNNEAGRTTILDHMHLKCKCHGLSGSCEVKTCWWAQPDFRAIGDFLKDKYDSASEMVVEKHRESRGWVETLRAKYSLFKPPTERDLVYYENSPNFCEPNPETGSFGTRDRTCNVTSHGIDGCDLLCCGRGHNTRTEKRKEKCHCIFHWCCYVSCQECIRIYDVHTCK
As to B1, the binding result is “binds”.
